For the assay, the target named is T1, CyaA-hemolysin (CyaA-Hly), 126-kDa truncated fragment of Bordetella pertussis adenylate cyclase-hemolysin … (Bordetella pertussis, strain not named; …, UniProt P0DKX7).
T1 construct: also called CyaA-Hly toxin; His-tagged CyaA-Hly domain
The experiment in a line: ELISA.

T1 sequence (P0DKX7 whole entry, looked up, the tested form may be a part): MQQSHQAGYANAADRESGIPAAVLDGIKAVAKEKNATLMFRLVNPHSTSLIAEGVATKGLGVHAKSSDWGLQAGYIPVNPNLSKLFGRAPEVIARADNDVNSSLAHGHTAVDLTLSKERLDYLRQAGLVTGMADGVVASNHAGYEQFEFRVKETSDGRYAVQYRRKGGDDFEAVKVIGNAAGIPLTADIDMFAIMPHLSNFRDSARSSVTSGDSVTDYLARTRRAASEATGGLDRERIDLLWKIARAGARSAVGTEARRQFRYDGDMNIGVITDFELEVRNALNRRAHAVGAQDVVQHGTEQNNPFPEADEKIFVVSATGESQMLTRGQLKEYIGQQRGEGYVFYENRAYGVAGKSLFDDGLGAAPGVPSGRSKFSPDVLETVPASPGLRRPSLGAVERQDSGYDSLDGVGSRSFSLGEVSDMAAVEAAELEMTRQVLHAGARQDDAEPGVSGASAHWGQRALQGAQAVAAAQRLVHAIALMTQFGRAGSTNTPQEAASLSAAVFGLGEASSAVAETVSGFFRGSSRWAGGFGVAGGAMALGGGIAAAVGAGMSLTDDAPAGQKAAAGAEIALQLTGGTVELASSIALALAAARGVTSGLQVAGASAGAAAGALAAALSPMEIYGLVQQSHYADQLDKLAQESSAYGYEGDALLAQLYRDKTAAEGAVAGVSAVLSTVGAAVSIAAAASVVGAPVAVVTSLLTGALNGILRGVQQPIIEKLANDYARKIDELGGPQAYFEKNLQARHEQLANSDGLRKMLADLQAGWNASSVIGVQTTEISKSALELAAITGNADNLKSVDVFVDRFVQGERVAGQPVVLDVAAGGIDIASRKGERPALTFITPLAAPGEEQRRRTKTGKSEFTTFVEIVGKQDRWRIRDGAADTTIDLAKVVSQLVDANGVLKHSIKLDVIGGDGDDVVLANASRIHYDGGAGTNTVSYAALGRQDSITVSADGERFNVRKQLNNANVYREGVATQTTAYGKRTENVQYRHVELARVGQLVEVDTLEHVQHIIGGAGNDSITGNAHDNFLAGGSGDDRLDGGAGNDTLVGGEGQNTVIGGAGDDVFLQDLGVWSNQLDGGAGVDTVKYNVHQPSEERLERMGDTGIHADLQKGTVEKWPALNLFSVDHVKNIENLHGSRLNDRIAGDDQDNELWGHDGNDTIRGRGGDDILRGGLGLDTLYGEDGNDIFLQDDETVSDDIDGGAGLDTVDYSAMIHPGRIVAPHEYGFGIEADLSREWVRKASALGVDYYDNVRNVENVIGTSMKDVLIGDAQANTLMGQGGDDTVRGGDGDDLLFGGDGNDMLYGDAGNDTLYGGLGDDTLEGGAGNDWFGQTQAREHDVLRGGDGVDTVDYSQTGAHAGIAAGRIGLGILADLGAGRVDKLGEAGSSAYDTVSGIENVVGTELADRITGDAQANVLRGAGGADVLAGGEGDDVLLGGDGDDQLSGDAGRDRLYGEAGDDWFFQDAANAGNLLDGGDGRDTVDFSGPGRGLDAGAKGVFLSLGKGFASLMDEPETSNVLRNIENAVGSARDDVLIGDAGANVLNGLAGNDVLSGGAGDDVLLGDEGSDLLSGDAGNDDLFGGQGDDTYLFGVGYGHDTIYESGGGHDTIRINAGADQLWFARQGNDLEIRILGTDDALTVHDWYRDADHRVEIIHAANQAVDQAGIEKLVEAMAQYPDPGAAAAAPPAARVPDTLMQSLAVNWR

B1: VHH37, His-tagged, purified and refolded (VHH)
VHH: VQLVESGGGSVQAGGSLRLSCTASGFTFDDFDMGWYHQAPGNECELVSTISNAGHTYYADSVKGRFAISRDNAKNMVYLQMNNLKPEDTAMYYCAAVGALLGFPLVLARPRGGYNYWGQGTMVTVSS
notes: not shown: His6, C-terminal, kept
In the case of B1, the binding result (both partners purified) is reported as “binds”.

B2: VHH37, E-tagged (clone no. 37, from the humanized-camel VH/VHH phage-display library) (VHH)
VHH: VQLVESGGGSVQAGGSLRLSCTASGFTFDDFDMGWYHQAPGNECELVSTISNAGHTYYADSVKGRFAISRDNAKNMVYLQMNNLKPEDTAMYYCAAVGALLGFPLVLARPRGGYNYWGQGTMVTVSS
notes: source: E. coli HB2151, phagemid pCANTAB5E, IPTG-induced, in lysate; not shown: E tag, C-terminal, kept
With B2, the binding result (one partner purified) was “binds”.

B3: VHH2, E-tagged (clone no. 2, from the humanized-camel VH/VHH phage-display library) (VHH)
VHH: VQLVESGGGSVQAGGSLRLSCTVSGYTDNRYCMGWFRQAPGKEREGVAGINDFGGTTYYVDSVKGRFTISQNNAKNTVYLQMNSLKPEDTAIYYCAIAPRIWGSICSPGTQYNYWGQGTMVTVSS
notes: as for B2
For B3, the binding result (one partner purified) is listed as “binds”.

B4: VHH2, His-tagged, purified and refolded (VHH)
VHH: VQLVESGGGSVQAGGSLRLSCTVSGYTDNRYCMGWFRQAPGKEREGVAGINDFGGTTYYVDSVKGRFTISQNNAKNTVYLQMNSLKPEDTAIYYCAIAPRIWGSICSPGTQYNYWGQGTMVTVSS
notes: as for B1
For the molecule B4, the binding result (both partners purified) was “binds”.

These data come from article PMC4848625, “Structural Characterization of Humanized Nanobodies with Neutralizing Activity against the Bordetella pertussis CyaA-Hemolysin: Implications for a Potential Epitope of Toxin-Protective Antigen” (Toxins, 2016).
